Square brackets hold non-standard residues; d marks the D form. Ends that are not written are not given here. * marks the point of attachment. Phe(F5) = N[C@@H](Cc1c(F)c(F)c(F)c(F)c1F)C(=O)O; Palmitoyl = CCCCCCCCCCCCCCCC(=O)*; Myristoyl = CCCCCCCCCCCCCC(=O)*; Nle = CCCC[C@H](N)C(=O)O; Sar = CNCC(=O)O
T1: rat PrRP receptor in RC-4B/C cells (rat, UniProt Q64121 1-370)
T1 construct: whole, on cells; endogenous receptor of RC-4B/C cells (ATCC); also called rat receptor; GPR10 receptor expressed in rat hypophyseal cells
T1 sequence (looked up): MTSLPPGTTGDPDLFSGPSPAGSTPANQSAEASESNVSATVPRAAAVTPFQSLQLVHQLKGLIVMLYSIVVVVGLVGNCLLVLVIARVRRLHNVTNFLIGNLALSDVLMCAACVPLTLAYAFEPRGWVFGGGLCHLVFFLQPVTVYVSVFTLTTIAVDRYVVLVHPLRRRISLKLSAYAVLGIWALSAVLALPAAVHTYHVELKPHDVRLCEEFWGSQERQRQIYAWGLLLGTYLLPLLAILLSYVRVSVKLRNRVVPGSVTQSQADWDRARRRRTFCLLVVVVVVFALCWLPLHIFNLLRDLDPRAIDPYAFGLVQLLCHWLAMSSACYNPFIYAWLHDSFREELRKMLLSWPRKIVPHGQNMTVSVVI

T2: human PrRP receptor GPR10 (human, UniProt P49683 1-370)
T2 construct: whole, on cells; also called GPR10 human receptor transfected in CHO cells; human GPR10 receptor
T2 sequence (looked up): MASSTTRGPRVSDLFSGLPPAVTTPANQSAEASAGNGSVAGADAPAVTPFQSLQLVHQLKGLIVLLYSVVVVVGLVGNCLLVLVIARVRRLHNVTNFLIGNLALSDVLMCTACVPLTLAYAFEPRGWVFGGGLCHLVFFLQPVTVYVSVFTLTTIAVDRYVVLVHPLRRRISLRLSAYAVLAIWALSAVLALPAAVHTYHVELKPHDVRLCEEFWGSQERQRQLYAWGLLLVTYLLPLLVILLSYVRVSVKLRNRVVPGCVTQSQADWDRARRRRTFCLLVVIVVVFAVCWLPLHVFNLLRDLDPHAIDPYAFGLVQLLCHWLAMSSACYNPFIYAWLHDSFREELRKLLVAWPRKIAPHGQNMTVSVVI

B1: analog no. 27 (peptide)
peptide: TPDINPAWYTGR[Sar]IRPVGRF-NH2
modifications: N-terminus assumed
SMILES: CC[C@H](C)[C@H](NC(=O)CN(C)C(=O)[C@H](CCCNC(=N)N)NC(=O)CNC(=O)[C@@H](NC(=O)[C@H](Cc1ccc(O)cc1)NC(=O)[C@H](Cc1c[nH]c2ccccc12)NC(=O)[C@H](C)NC(=O)[C@@H]1CCCN1C(=O)[C@H](CC(N)=O)NC(=O)[C@@H](NC(=O)[C@H](CC(=O)O)NC(=O)[C@@H]1CCCN1C(=O)[C@@H](N)[C@@H](C)O)[C@@H](C)CC)[C@@H](C)O)C(=O)N[C@@H](CCCNC(=N)N)C(=O)N1CCC[C@H]1C(=O)N[C@H](C(=O)NCC(=O)N[C@@H](CCCNC(=N)N)C(=O)N[C@@H](Cc1ccccc1)C(N)=O)C(C)C
B2: analog no. 25 (peptide)
peptide: [dF][dR]GVPRIGRGTYWAPNIDPT-NH2
modifications: N-terminus assumed
SMILES: CC[C@H](C)[C@H](NC(=O)[C@H](CCCNC(=N)N)NC(=O)[C@@H]1CCCN1C(=O)[C@@H](NC(=O)CNC(=O)[C@@H](CCCNC(=N)N)NC(=O)[C@H](N)Cc1ccccc1)C(C)C)C(=O)NCC(=O)N[C@@H](CCCNC(=N)N)C(=O)NCC(=O)N[C@H](C(=O)N[C@@H](Cc1ccc(O)cc1)C(=O)N[C@@H](Cc1c[nH]c2ccccc12)C(=O)N[C@@H](C)C(=O)N1CCC[C@H]1C(=O)N[C@@H](CC(N)=O)C(=O)N[C@H](C(=O)N[C@@H](CC(=O)O)C(=O)N1CCC[C@H]1C(=O)N[C@H](C(N)=O)[C@@H](C)O)[C@@H](C)CC)[C@@H](C)O
notes: scrambled peptide; also called 25 scram
B3: analog no. 24 (peptide)
peptide: Palmitoyl-SRAHQHS[Nle]ETRTPDINPAWYTGRGIRPVGRY-NH2
SMILES: CCCCCCCCCCCCCCCC(=O)N[C@@H](CO)C(=O)N[C@@H](CCCNC(=N)N)C(=O)N[C@@H](C)C(=O)N[C@@H](Cc1c[nH]cn1)C(=O)N[C@@H](CCC(N)=O)C(=O)N[C@@H](Cc1c[nH]cn1)C(=O)N[C@@H](CO)C(=O)N[C@@H](CCCC)C(=O)N[C@@H](CCC(=O)O)C(=O)N[C@H](C(=O)N[C@@H](CCCNC(=N)N)C(=O)N[C@H](C(=O)N1CCC[C@H]1C(=O)N[C@@H](CC(=O)O)C(=O)N[C@H](C(=O)N[C@@H](CC(N)=O)C(=O)N1CCC[C@H]1C(=O)N[C@@H](C)C(=O)N[C@@H](Cc1c[nH]c2ccccc12)C(=O)N[C@@H](Cc1ccc(O)cc1)C(=O)N[C@H](C(=O)NCC(=O)N[C@@H](CCCNC(=N)N)C(=O)NCC(=O)N[C@H](C(=O)N[C@@H](CCCNC(=N)N)C(=O)N1CCC[C@H]1C(=O)N[C@H](C(=O)NCC(=O)N[C@@H](CCCNC(=N)N)C(=O)N[C@@H](Cc1ccc(O)cc1)C(N)=O)C(C)C)[C@@H](C)CC)[C@@H](C)O)[C@@H](C)CC)[C@@H](C)O)[C@@H](C)O
B4: analog no. 23 (peptide)
peptide: SRAHQHS[Nle]ETRTPDINPAWYTGRGIRPVGRY-NH2
modifications: N-terminus assumed
SMILES: CCCC[C@H](NC(=O)[C@H](CO)NC(=O)[C@H](Cc1c[nH]cn1)NC(=O)[C@H](CCC(N)=O)NC(=O)[C@H](Cc1c[nH]cn1)NC(=O)[C@H](C)NC(=O)[C@H](CCCNC(=N)N)NC(=O)[C@@H](N)CO)C(=O)N[C@@H](CCC(=O)O)C(=O)N[C@H](C(=O)N[C@@H](CCCNC(=N)N)C(=O)N[C@H](C(=O)N1CCC[C@H]1C(=O)N[C@@H](CC(=O)O)C(=O)N[C@H](C(=O)N[C@@H](CC(N)=O)C(=O)N1CCC[C@H]1C(=O)N[C@@H](C)C(=O)N[C@@H](Cc1c[nH]c2ccccc12)C(=O)N[C@@H](Cc1ccc(O)cc1)C(=O)N[C@H](C(=O)NCC(=O)N[C@@H](CCCNC(=N)N)C(=O)NCC(=O)N[C@H](C(=O)N[C@@H](CCCNC(=N)N)C(=O)N1CCC[C@H]1C(=O)N[C@H](C(=O)NCC(=O)N[C@@H](CCCNC(=N)N)C(=O)N[C@@H](Cc1ccc(O)cc1)C(N)=O)C(C)C)[C@@H](C)CC)[C@@H](C)O)[C@@H](C)CC)[C@@H](C)O)[C@@H](C)O
B5: analog no. 28 (peptide)
peptide: Myristoyl-TPDINPAWYTGR[Sar]IRPVGRF-NH2
SMILES: CCCCCCCCCCCCCC(=O)N[C@H](C(=O)N1CCC[C@H]1C(=O)N[C@@H](CC(=O)O)C(=O)N[C@H](C(=O)N[C@@H](CC(N)=O)C(=O)N1CCC[C@H]1C(=O)N[C@@H](C)C(=O)N[C@@H](Cc1c[nH]c2ccccc12)C(=O)N[C@@H](Cc1ccc(O)cc1)C(=O)N[C@H](C(=O)NCC(=O)N[C@@H](CCCNC(=N)N)C(=O)N(C)CC(=O)N[C@H](C(=O)N[C@@H](CCCNC(=N)N)C(=O)N1CCC[C@H]1C(=O)N[C@H](C(=O)NCC(=O)N[C@@H](CCCNC(=N)N)C(=O)N[C@@H](Cc1ccccc1)C(N)=O)C(C)C)[C@@H](C)CC)[C@@H](C)O)[C@@H](C)CC)[C@@H](C)O
B6: analog no. 51 (peptide)
peptide: SRTHRHSMEIRTPDINPK(Palmitoyl)WYASRGIRPVGRF-NH2
modifications: N-terminus assumed
SMILES: CCCCCCCCCCCCCCCC(=O)NCCCC[C@H](NC(=O)[C@@H]1CCCN1C(=O)[C@H](CC(N)=O)NC(=O)[C@@H](NC(=O)[C@H](CC(=O)O)NC(=O)[C@@H]1CCCN1C(=O)[C@@H](NC(=O)[C@H](CCCNC(=N)N)NC(=O)[C@@H](NC(=O)[C@H](CCC(=O)O)NC(=O)[C@H](CCSC)NC(=O)[C@H](CO)NC(=O)[C@H](Cc1c[nH]cn1)NC(=O)[C@H](CCCNC(=N)N)NC(=O)[C@H](Cc1c[nH]cn1)NC(=O)[C@@H](NC(=O)[C@H](CCCNC(=N)N)NC(=O)[C@@H](N)CO)[C@@H](C)O)[C@@H](C)CC)[C@@H](C)O)[C@@H](C)CC)C(=O)N[C@@H](Cc1c[nH]c2ccccc12)C(=O)N[C@@H](Cc1ccc(O)cc1)C(=O)N[C@@H](C)C(=O)N[C@@H](CO)C(=O)N[C@@H](CCCNC(=N)N)C(=O)NCC(=O)N[C@H](C(=O)N[C@@H](CCCNC(=N)N)C(=O)N1CCC[C@H]1C(=O)N[C@H](C(=O)NCC(=O)N[C@@H](CCCNC(=N)N)C(=O)N[C@@H](Cc1ccccc1)C(N)=O)C(C)C)[C@@H](C)CC

These binders were tested against T1, rat PrRP receptor in RC-4B/C cells (assay: competition with 125I-rat PrRP31, RC-4B/C cells).
Protocol: The rat pituitary cell line RC-4B/C (ATCC, Manassas, USA) was grown on 24-well plates which had their bottom coated with polyethyleneimine. The cells were grown to the optimal density of 300-450 thousand cells per well.
(§1) Plates were incubated for 60 minutes at room temperature. After incubation, the cells were solubilized in 0.1 mol/l solution of NaOH, and the radioactivity bound to the cells was counted using a γ-counter. The experiments were performed in duplicate, and repeated at least three times.
For SRAHQHSMETRTPDINPAWYTGRGIRPVGRF-NH2 (synthetic peptide) [Rat PrRP31], the “% of PrRP31” value was 100% and the Ki was 4.93 nM.
SRAHQHS[Nle]ETRTPDINPAWYTGRGIRPVGR[Phe(F5)]-NH2 [analog no. 21] was tested, and the “% of PrRP31” value was 51% and the Ki was 9.69 nM.
With B1 the “% of PrRP31” value was 62% and the Ki was 7.94 nM.
Palmitoyl-SRAHQHS[Nle]ETRTPDINPAWYTGRGIRPVGR[Phe(F5)]-NH2 [analog no. 22] was tested, and the “% of PrRP31” value was 966% and the Ki was 0.51 nM.
In the case of B2, the “% of PrRP31” value is reported as 0.09% and the Ki is reported as 5200 nM.
For SRAHQHS[Nle]ETRTPDINPAWYTGRGIRPVGRF-NH2 [analog no. 3], the “% of PrRP31” value was 385% and the Ki was 1.28 nM.
B3 was tested, and the “% of PrRP31” value was 1120% and the Ki was 0.44 nM.
B4 was tested, and the “% of PrRP31” value was 152% and the Ki was 3.25 nM.
For B5, the “% of PrRP31” value was 1540% and the Ki was 0.32 nM.

The binders below were run against T2, human PrRP receptor GPR10 (assay: competition with 125I-human PrRP31, CHO cells with human GPR10).
Protocol: CHO cells transfected with human PrRP receptor GPR10 (Perkin Elmer, USA) were grown on 24-well plates coated with polyethyleneimine. […] The following agents were used for the experiment: binding buffer (25 mmol.1⁻¹ Tris, pH 7.4; 118 mmol.1⁻¹ NaCl, 10 mmol.1⁻¹ MgCl₂, 1 mmol.1⁻¹ CaCl₂, 5.5 mmol.1⁻¹ glucose, 0.5 mg/ml BSA), unlabeled analogs of PrRP (i.e. the analog being tested) at a final concentration between 10⁻¹¹ to 10⁻⁴ mol.1⁻¹, and radiolabeled human ¹²⁵1-PrRP31 at a final concentration of 5×10⁻¹¹ mol.1⁻¹.
as §1
SRAHQHSMETRTPDINPAWYTGRGIRPVGRF-NH2 (synthetic peptide) [Rat PrRP31] was tested, and the “% of PrRP31” value was 100% and the Ki was 3.89 nM.
SRAHQHS[Nle]ETRTPDINPAWYTGRGIRPVGR[Phe(F5)]-NH2 [analog no. 21] was tested, and the “% of PrRP31” value was 45% and the Ki was 8.59 nM.
For B1, the “% of PrRP31” value was 86% and the Ki was 4.51 nM.
In the case of Palmitoyl-SRAHQHS[Nle]ETRTPDINPAWYTGRGIRPVGR[Phe(F5)]-NH2 [analog no. 22], the “% of PrRP31” value is reported as 203% and the Ki is reported as 1.92 nM.
With B2 the “% of PrRP31” value was 0.06% and the Ki was 6290 nM.
With SRAHQHS[Nle]ETRTPDINPAWYTGRGIRPVGRF-NH2 [analog no. 3] the “% of PrRP31” value was 203% and the Ki was 1.92 nM.
With B3 the “% of PrRP31” value was 248% and the Ki was 1.57 nM.
For B4, the “% of PrRP31” value was 193% and the Ki was 2.02 nM.
With B5 the “% of PrRP31” value was 125% and the Ki was 3.12 nM.
For B6, the “% of PrRP31” value was 54% and the Ki was 7.24 nM.

From patent publication US20150196651A1 (published 2015)
